B1: Cas3 of E. coli K12 Type I-E CRISPR/Cas complex [E. coli K12] / Cas8 of E. coli K12 Type I-E CRISPR/Cas complex [E. coli K12] (parent complex)
chain 1: MEPFKYICHYWGKSSKSLTKGNDIHLLIYHCLDVAAVADCWWDQSVVLQNTFCRNEMLSKQRVKAWLLFFIALHDIGKFDIRFQYKSAESWLKLNPATPSLNGPSTQMCRKFNHGAAGLYWFNQDSLSEQSLGDFFSFFDAAPHPYESWFPWVEAVTGHHGFILHSQDQDKSRWEMPASLASYAAQDKQAREEWISVLEALFLTPAGLSINDIPPDCSSLLAGFCSLADWLGSWTTTNTFLFNEDAPSDINALRTYFQDRQQDASRVLELSGLVSNKRCYEGVHALLDNGYQPRQLQVLVDALPVAPGLTVIEAPTGSGKTETALAYAWKLIDQQIADSVIFALPTQATANAMLTRMEASASHLFSSPNLILAHGNSRFNHLFQSIKSRAITEQGQEEAWVQCCQWLSQSNKKVFLGQIGVCTIDQVLISVLPVKHRFIRGLGIGRSVLIVDEVHAYDTYMNGLLEAVLKAQADVGGSVILLSATLPMKQKQKLLDTYGLHTDPVENNSAYPLINWRGVNGAQRFDLLAHPEQLPPRFSIQPEPICLADMLPDLTMLERMIAAANAGAQVCLICNLVDVAQVCYQRLKELNNTQVDIDLFHARFTLNDRREKENRVISNFGKNGKRNVGRILVATQVVEQSLDVDFDWLITQHCPADLLFQRLGRLHRHHRKYRPAGFEIPVATILLPDGEGYGRHEHIYSNVRVMWRTQQHIEELNGASLFFPDAYRQWLDSIYDDAEMDEPEWVGNGMDKFESAECEKRFKARKVLQWAEEYSLQDNDETILAVTRDGEMSLPLLPYVQTSSGKQLLDGQVYEDLSHEQQYEALALNRVNVPFTWKRSFSEVVDEDGLLWLEGKQNLDGWVWQGNSIVITYTGDEGMTRVIPANPK
chain 2: MNLLIDNWIPVRPRNGGKVQIINLQSLYCSRDQWRLSLPRDDMELAALALLVCIGQIIAPAKDDVEFRHRIMNPLTEDEFQQLIAPWIDMFYLNHAEHPFMQTKGVKANDVTPMEKLLAGVSGATNCAFVNQPGQGEALCGGCTAIALFNQANQAPGFGGGFKSGLRGGTPVTTFVRGIDLRSTVLLNVLTLPRLQKQFPNESHTENQPTWIKPIKSNESIPASSIGFVRGLFWQPAHIELCDPIGIGKCSCCGQESNLRYTGFLKEKFTFTVNGLWPHPHSPCLVTVKKGEVEEKFLAFTTSAPSWTQISRVVVDKIIQNENGNRVAAVVNQFRNIAPQSPLELIMGGYRNNQASILERRHDVLMFNQGWQQYGNVINEIVTVGLGYKTALRKALYTFAEGFKNKDFKGAGVSVHETAERHFYRQSELLIPDVLANVNFSQADEVIADLRDKLHQLCEMLFNQSVAPYAHHPKLISTLALARATLYKHLRELKPQGGPSNG
B2: Cas3 of E. coli K12 Type I-E CRISPR/Cas complex [E. coli K12] / Cas2 of E. coli K12 Type I-E CRISPR/Cas complex [E. coli K12] (parent complex)
chain 1: B1 chain 1
chain 2: MSMLVVVTENVPPRLRGRLAIWLLEVRAGVYVGDVSAKIREMIWEQIAGLAEEGNVVMAWATNTETGFEFQTFGLNRRTPVDLDGLRLVSFLPV
B3: Cas3 of E. coli K12 Type I-E CRISPR/Cas complex [E. coli K12] / Cas5 of E. coli K12 Type I-E CRISPR/Cas complex [E. coli K12] (parent complex)
chain 1: B1 chain 1
chain 2: MRSYLILRLAGPMQAWGQPTFEGTRPTGRFPTRSGLLGLLGACLGIQRDDTSSLQALSESVQFAVRCDELILDDRRVSVTGLRDYHTVLGAREDYRGLKSHETIQTWREYLCDASFTVALWLTPHATMVISELEKAVLKPRYTPYLGRRSCPLTHPLFLGTCQASDPQKALLNYEPVGGDIYSEESVTGHHLKFTARDEPMITLPRQFASREWYVIKGGMDVSQ
B4: Cas3 of E. coli K12 Type I-E CRISPR/Cas complex [E. coli K12] / Cas6 of E. coli K12 Type I-E CRISPR/Cas complex [E. coli K12] (parent complex)
chain 1: B1 chain 1
chain 2: MYLSKVIIARAWSRDLYQLHQGLWHLFPNRPDAARDFLFHVEKRNTPEGCHVLLQSAQMPVSTAVATVIKTKQVEFQLQVGVPLYFRLRANPIKTILDNQKRLDSKGNIKRCRVPLIKEAEQIAWLQRKLGNAARVEDVHPISERPQYFSGDGKSGKIQTVCFEGVLTINDAPALIDLVQQGIGPAKSMGCGLLSLAPL
B5: Cas3 of E. coli K12 Type I-E CRISPR/Cas complex [E. coli K12] / Cas7 of E. coli K12 Type I-E CRISPR/Cas complex [E. coli K12] (parent complex)
chain 1: B1 chain 1
chain 2: MSNFINIHVLISHSPSCLNRDDMNMQKDAIFGGKRRVRISSQSLKRAMRKSGYYAQNIGESSLRTIHLAQLRDVLRQKLGERFDQKIIDKTLALLSGKSVDEAEKISADAVTPWVVGEIAWFCEQVAKAEADNLDDKKLLKVLKEDIAAIRVNLQQGVDIALSGRMATSGMMTELGKVDGAMSIAHAITTHQVDSDIDWFTAVDDLQEQGSAHLGTQEFSSGVFYRYANINLAQLQENLGGASREQALEIATHVVHMLATEVPGAKQRTYAAFNPADMVMVNFSDMPLSMANAFEKAVKAKDGFLQPSIQAFNQYWDRVANGYGLNGAAAQFSLSDVDPITAQVKQMPTLEQLKSWVRNNGEA
B6: Cas3 of E. coli K12 Type I-E CRISPR/Cas complex [E. coli K12] / Cas1 of E. coli K12 Type I-E CRISPR/Cas complex [E. coli K12] (parent complex)
chain 1: B1 chain 1
chain 2: MTWLPLNPIPLKDRVSMIFLQYGQIDVIDGAFVLIDKTGIRTHIPVGSVACIMLEPGTRVSHAAVRLAAQVGTLLVWVGEAGVRVYASGQPGGARSDKLLYQAKLALDEDLRLKVVRKMFELRFGEPAPARRSVEQLRGIEGSRVRATYALLAKQYGVTWNGRRYDPKDWEKGDTINQCISAATSCLYGVTEAAILAAGYAPAIGFVHTGKPLSFVYDIADIIKFDTVVPKAFEIARRNPGEPDREVRLACRDIFRSSKTLAKLIPLIEDVLAAGEIQPPAPPEDAQPVAIPLPVSLGDAGHRSS
B7: Cas3 of E. coli K12 Type I-E CRISPR/Cas complex [E. coli K12] / Cas11 of E. coli K12 Type I-E CRISPR/Cas complex [E. coli K12] (parent complex)
chain 1: B1 chain 1
chain 2: MADEIDAMALYRAWQQLDNGSCAQIRRVSEPDELRDIPAFYRLVQPFGWENPRHQQALLRMVFCLSAGKNVIRHQDKKSEQTTGISLGRALANSGRINERRIFQLIRADRTADMVQLRRLLTHAEPVLDWPLMARMLTWWGKRERQQLLEDFVLTTNKNA

Variants of: B1
Assay: SPEC system (split protease-E. coli ClpXP) in E. coli cells; parent: 100; read off a plot

Row | percent of parent [%] | Variant
1 | ~82 | chain 1 H74A
2 | ~83 | chain 1 K320N
3 | ~97 | chain 1 S483A, chain 1 T485A

Variants of: B2
Assay: as above

Row | percent of parent [%] | Variant
4 | ~130 | chain 1 H74A
5 | ~130 | chain 1 D452N
6 | ~130 | chain 1 K320N
7 | ~110 | chain 1 K78A

Variants of: B3
Assay: as above

Row | percent of parent [%] | Variant
8 | ~67 | chain 1 K78A
9 | ~110 | chain 1 D452N
10 | ~45 | chain 1 H74A

Variants of: B4
Assay: as above

Row | Variant | percent of parent [%]
11 | chain 1 D75A | ~110
12 | chain 1 H74A | ~150
13 | chain 1 D452N | ~140

Results, then the variant that gave them:

Row | percent of parent [%] | Variant
14 | ~120 | chain 1 K320N
15 | ~130 | chain 1 S483A, chain 1 T485A
16 | ~95 | chain 1 K78A

Variants of: B5
Assay: as above

Row | percent of parent [%] | Variant
17 | ~120 | chain 1 D452N
18 | ~120 | chain 1 K320N
19 | ~73 | chain 1 K78A
20 | ~25 | chain 1 S483A, chain 1 T485A

Variants of: B6
Assay: as above

Row | Variant | percent of parent [%]
21 | chain 1 D452N | ~130
22 | chain 1 H74A | ~60

Next, values leading:

Row | percent of parent [%] | Variant
23 | ~110 | chain 1 S483A, chain 1 T485A
24 | ~120 | chain 1 K320N
25 | ~50 | chain 1 K78A

Variants of: B7
Assay: as above

Row | percent of parent [%] | Variant
26 | ~73 | chain 1 S483A, chain 1 T485A
27 | ~110 | chain 1 H74A
28 | ~110 | chain 1 K78A

Reference: article PMC8260793, “A split protease-E. coli ClpXP system quantifies protein–protein interactions in Escherichia coli cells” (Communications Biology, 2021)
